Measurements: the nanobody polyreactivity screen of Harvey et al. (2022)

Assay: yeast display, Sf9 membrane polyspecificity reagent, FACS + sequencing; frameworks hold sequencing errors
How it was run: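 A nanobody's polyreactivity label depends on the gate it was sorted from. Yeast display cells were stained with 10% biotinylated, detergent-solubilized Sf9 membrane reagent for 1 hour at 4 °C, enriched on streptavidin microbeads and sorted by FACS. The low and high (top ~1%) gates were set on anti-HA fluorescence for expression and streptavidin fluorescence for reagent binding.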

Sequence	polyreactivity (PSR sort gate)
QVQLVESGGVLVQAGGSLRLSCAASEIIFTFYAMAWYRQAPGKEMELVAAITSSGGRTYYADSVKGRFTISRDNAKNTVYLQMNSLKPEDTAVYYCAARLPGYVRKYDYWGQGTQVTVSW	high polyreactivity
QVQLVESGGGLVQAGGSLRLSCAASRFTFVHYAMGWYRQAPGKERELVAAISRSGGSTYCADSVKGRFTISRDNAKNTVYLQMNSLKPEDTAVYYCAASRGSYEVVYWGQGTQVTVSS	high polyreactivity
QVQLVESGGGLVQAGGSLRLSCAASGSIYGVKAMRWYRQAPGKERELVADITKSTGDTYADSVKGRFTISRDNAKNTVYLQMNSLKPEDTAGYYCNARVTVKQKRLYLYDFWGQGTQVTVSS	low polyreactivity
QVQLVESGGGLVQAGGSLRLSCAASGITFAYYAKGWYRQAPGKEREFVAAINGGGSTNYADSVKGRFSISRDNAKNTVYLQMNSLKAEDTAVYFCNARRAYRAWYYPYDYWGQGTQVTVSS	high polyreactivity
QVQLVESAGGLVQAGGSLRLSCAASGYIFGVYAMGWYRQAPGKERELVAAISYGVGSTYYADSVKGRFTISRDNAKNTVYLQMNSLKPEDTAVYYCASDVFFYVYEAYLLYYWGQGTQVTVSS	low polyreactivity
QVQLVESGGGLVQAGGSLRLSCAASGRIFTQNAMGWYRQAPGKERELVAAITSGGSTYYADSVKGRFTISRDNAKNTVYLQMNSLKPEDTAVYYCAKRYPYYLSTMEYWGQGTQVTVSS	low polyreactivity
QVQLVESVGGLVQAGGSLRLSSAASGSIFAYNAMGSYRQAPGKERELVAAITSDDSTNNADSVKGRFTISRDNAKNTVYLQMNSLKPEDTAVYYCAAYYYYTYIIGYDYWGQGTQVTVSS	low polyreactivity
QVQLVESGGGLVQAGGSLRLSCSASGRIFKRYAMGWYRQSPGKERELVAAFTRGGSTNYADSVKGRFTISRDNAKNTVYLQMNSLKPEDTAVYYCNRYGGTRYWGRGTQVTVSS	high polyreactivity
QVQLVESGGGLVQAGGSLRLSCAASGFTFGWYTMGWYRQAPGKERELDAAISLNGGSTYYADSVKGRFTISRDNAKNTVYLQMTSLKPEDTAVYYCAIRYRWPYYPYVYWGQGTQVTVSS	low polyreactivity
QVQLVESGGGLVQAGGSLRLSCAATGRTFIPYAMGWYRQAPGKERELVAAIRTTGGSTYYADSVKGRFTISRDNAKNTVYLQMNSLKPEDTAVYYCAATSRQRPYDYWGQGTQVTVSS	high polyreactivity
QVKLVESGGGLVQAGGSLRLSCGASGSTFGAYAMGWYRQAPGKERELVAVINSDGSTNYADSVKGRFTISRDNAKNTVYLQMNSMKPEDTAVYYCAKERTSRGGVPRMNYWGQGTQVTVSS	low polyreactivity
QVQLVESGGGLVQAGGSLRLSCAASGYTFDDYEMGWYRQAPGKERELVAAISRGGSTYYADSVKGRFTISRDNEKNTVYFQMNSLKPEDTAVYYCGAVYRVRKITYDYWGQGTQVTVSS	high polyreactivity
QVQLVESGGGLVQAGGSLRLSCAASGSILALYTMGWYRQAPGKEREFVATITSSDGSTYYADSVKGRFTISRDNAKNTVYLQMNSLKPEDTAVYYCNARGSVYYLKFDYWGQGTQVTVSS	low polyreactivity
QVQLVESGGGIVQAGGSLRLTCAASGFIFWDYAMGWYRQAPGKERELVAAISDSGGDTYYADSVKGRFTISRDNAKNTVYLQMNSLNPEDTAVYYCASVVELWVFRGQQYDYWGQGTQVTVSS	low polyreactivity
QVQLVESGGGLVQAGGSLRLSCASSGRTFYSYVMGWYRQAHGKERELVAGISKRGGRTYYADSVKGRFTISRDNAKNTVYLEMYSLKPEDTAVYFCADDFPHTYWTFDFDYWGQGTQVTVSS	high polyreactivity
QVQLVESGGGLVQAGGSLRLSCAASGRIFLFYDMGWYRQAPGKERELVATISFRGGSTYYADSVKGRFTISRDNAKNTVYLQMNSLKPEDTAVYYCAKQNKRGYSTSAYYYWGQGTQVTVSS	low polyreactivity
QVQLVESGGGLVQAGGSLRLSCAASGITFDYYPMGWYRQEPGKERELVAVITWSVGSTKYADSVKGRFTISRDNAKNTVYLLMNRLKPEETAVYNCNPRPPRWVRSMDYWGHGTQVTVSS	high polyreactivity
QVQLVESGGGLVQAGGSLRLSCAASGRTFVKYAMGWYRQAPGKERELVAAISSRGSSTYYADSVKGRFTISRDNAKNTVYLQMNSLKPEETAVYYCNAVYYYNPGYDYWGQGTQVTVSS	high polyreactivity
QVQLVESGGGLVQAGGRLRLSCAASGRTFYYNAMGWYRQAPGKERELVAAISSSGGRTYYADSVKGRFTISRDNAKNTVYLQMNSLKPEDTAVYYCAALTNARGFDYWGQGTQVTVSS	high polyreactivity
QEQLVESGGGLVQAGGSLRLSCAAYGSTYNSYVMGWNRQAPVKERELVAAISTSGGRTYYADSVKGRFTISRDNAKNTVYLKMISLKPEDTAVYYCNRVFLKYYESTHWRDYWGQGTKVTVSS	high polyreactivity
QVQLVESGGGLVQAGGSLRLSCAASGFIFQRYAMGWYRQAPGKERELVAAITRTGGRTYYSDSVKGRFTISRDNAKNTVYLQMNSLKPEDTAVYYCAADRTMSYEYWGQGTKVTVSS	high polyreactivity
QVQIVESGGGLVQAGGSLRLSCADSGTTFRFNAIGWSRQAPGKERELVAAITGIGGITYYADSVKGRFTISRDNAKNTVYLQMNSLKPEDTAVYYCNAVAARYSVRNGYSTHYDYWGQGTQVTVSS	high polyreactivity
